Nine molecules from publication PMC10397247 can be followed below.

Common to all, as to experiment: two-hybrid library CCNG1;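 note: natural log of median RNA to DNA barcode read ratio; higher means stronger binding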
Test [1] has as its target T1, 4H4073-bN.
T1 chain: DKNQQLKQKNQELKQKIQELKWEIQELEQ

Test [2] addresses T2, 4H2702-bN.
T2 chain: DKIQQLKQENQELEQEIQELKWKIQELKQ

Test [3] has as its target T3, 4H797-bN.
T3 chain: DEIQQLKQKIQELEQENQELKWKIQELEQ

Test [4] addresses T4, 4H346-bN.
T4 chain: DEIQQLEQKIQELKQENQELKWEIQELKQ

Test [5] addresses T5, 4H3112-bN.
T5 chain: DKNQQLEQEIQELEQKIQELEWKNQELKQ

The target of test [6] is T6, 4H457-bN.
T6 chain: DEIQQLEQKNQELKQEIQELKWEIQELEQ

Test [7] deals with T7, 4H3189-bA.
T7 chain: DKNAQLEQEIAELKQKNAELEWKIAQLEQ

Test [8] addresses T8, 4H968-bN.
T8 chain: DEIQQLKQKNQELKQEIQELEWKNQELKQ

Test [9] addresses T9, 4H575-bN.
T9 chain: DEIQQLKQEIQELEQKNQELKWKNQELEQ

For test [10], the target named is T10, 4H3010-bN.
T10 chain: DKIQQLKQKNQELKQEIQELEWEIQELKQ

Test [11] has as its target T11, 4H2627-bN.
T11 chain: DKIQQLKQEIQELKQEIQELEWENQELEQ

Test [12] has as its target T12, 4H780-bN.
T12 chain: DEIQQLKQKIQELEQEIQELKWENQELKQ

Test [13] concerns the target T13, 4H2673-bN.
T13 chain: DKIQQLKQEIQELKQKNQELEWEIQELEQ

The target of test [14] is T14, 4H3926-bN.
T14 chain: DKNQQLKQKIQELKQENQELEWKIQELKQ

Test [15] deals with T15, 4H855-bN.
T15 chain: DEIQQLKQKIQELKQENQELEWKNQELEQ

Test [16] deals with T16, 4H918-bN.
T16 chain: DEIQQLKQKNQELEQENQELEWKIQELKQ

The target in test [17] is T17, 4H754-bN.
T17 chain: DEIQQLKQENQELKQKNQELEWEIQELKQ

Test [18] addresses T18, 4H3427-bN.
T18 chain: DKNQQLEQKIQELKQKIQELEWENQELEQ

In test [19] the target is T19, 4H883-bH.
T19 chain: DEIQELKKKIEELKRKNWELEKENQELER

For test [20], the target named is T20, 4H683-bN.
T20 chain: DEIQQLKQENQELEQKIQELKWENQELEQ

Test [21] deals with T21, 4H953-bN.
T21 chain: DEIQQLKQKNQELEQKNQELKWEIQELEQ

For test [22], the target named is T22, O5-bH.
T22 chain: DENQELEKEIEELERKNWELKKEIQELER

In test [23] the target is T23, O4-bH.
T23 chain: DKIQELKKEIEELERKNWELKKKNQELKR

The target of test [24] is T24, O2-bH.
T24 chain: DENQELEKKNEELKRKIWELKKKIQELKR

Test [25] addresses T25, O8-bH.
T25 chain: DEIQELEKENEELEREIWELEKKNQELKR

Test [26] concerns the target T26, O16-bH.
T26 chain: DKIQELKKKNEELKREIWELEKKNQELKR

Test [27] addresses T27, O9-bH.
T27 chain: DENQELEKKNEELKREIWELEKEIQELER

Test [28] addresses T28, O3-bH.
T28 chain: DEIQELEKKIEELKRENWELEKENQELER

The target of test [29] is T29, O7-bH.
T29 chain: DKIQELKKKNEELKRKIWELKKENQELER

Test [30] deals with T30, O6-bH.
T30 chain: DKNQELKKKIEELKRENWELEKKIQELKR

The target of test [31] is T31, P5mSN.
T31 chain: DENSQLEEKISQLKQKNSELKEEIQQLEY

Test [32] concerns the target T32, P8mSN.
T32 chain: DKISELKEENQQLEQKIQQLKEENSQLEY

Test [33] concerns the target T33, P7mSN.
T33 chain: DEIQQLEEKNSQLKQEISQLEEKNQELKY

The target in test [34] is T34, P6mSN.
T34 chain: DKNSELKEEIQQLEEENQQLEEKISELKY

The target of test [35] is T35, O15-bH.
T35 chain: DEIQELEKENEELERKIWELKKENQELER

The target in test [36] is T36, 4H3628-bH.
T36 chain: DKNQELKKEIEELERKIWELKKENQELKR

Test [37] addresses T37, 4H2586-bN.
T37 chain: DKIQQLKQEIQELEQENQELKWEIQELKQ

Test [38] has as its target T38, 4H349-bA.
T38 chain: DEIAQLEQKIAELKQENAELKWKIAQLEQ

Test [39] has as its target T39, 4H3961-bN.
T39 chain: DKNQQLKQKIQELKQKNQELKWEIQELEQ

Test [40] concerns the target T40, 4H363-bN.
T40 chain: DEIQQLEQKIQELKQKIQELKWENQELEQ

Test [41] deals with T41, 4H3907-bN.
T41 chain: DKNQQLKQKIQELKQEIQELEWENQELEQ

In test [42] the target is T42, 4H470-bN.
T42 chain: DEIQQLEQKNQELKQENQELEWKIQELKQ

DKIQQLKQEIQELKQEIQELEWENQELEQ [4H2627-bN]: the interaction score was 0.24 in test [1]; -0.837 in test [2]; -2.2 in test [3]; -1.49 in [4]; -0.418 in test [5]; -1.44 in test [6]. For the same molecule, the interaction score is -2.27 in test [7]; -0.499 in test [8]; 0.336 in test [9]; -0.478 in [10]; -1.18 in test [11]; -0.619 in [12]. The interaction score in test [13] was -0.336; in test [14], -0.972; in test [15], -0.307; in [16], -0.935; in [17], -1.21; in test [18] it was -0.336. Moreover, the interaction score in test [19] was 0.737; in test [20] it was -0.185; in test [21] it was -1.1.
DKIQELKKKNEELKREIWELEKKNQELKR [O16-bH]: the interaction score in test [22] was -0.611; in test [23], 0.0481; in test [24] it was -1.39; in [25] it was 0.7; in test [26], 0.441; in test [27] it was -0.421. Moreover, the results for the interaction score in test [28], in test [29] and in test [30] were 1.41, 1.17 and 1.06, respectively.
Take DENSQLEEKISQLKQKNSELKEEIQQLEY [P5mSN]: the interaction score in [31] was -1.4; in test [32], -0.632; in test [33], -0.763; in test [34], 0.0393.
With DENQELEKEIEELERENWELEKKIQELKR [O14-bH], the interaction score in test [22] is -1.91; in [23], 0.39; in test [24], -1.83; in test [25] it was -1.78; in test [35], 1.43; in [26] it was 1.45. For the same molecule, the interaction score in test [27] was 0.497; in test [28], -0.0193; in test [29], 1.56; in test [30], 1.63.
As for DKIQQLKQEIQELEQENQELKWEIQELKQ [4H2586-bN], the interaction score in test [1] is -0.362; in [2] it was -0.448; in test [36] it was 1.41; in test [3] it was -0.469; in test [4] it was 1.97; in test [5], -1.32. In addition, the interaction score in [6] was -0.912; in [8], -1.31; in test [9], -1.1; in test [10] it was 0.0264; in [11], -0.115; in test [12] it was -1.16. In addition, the interaction score in test [13] was -1.47; in test [14], 0.209; in [15], -0.916; in test [16] it was -1.12; in [17], -1.88; in test [18], 0.526. The interaction score in [20] was 0.147; in [21], -1.01; in test [37], 0.806.
Consider DENQQLKQKIQELEQKIQELEWKNQELEQ [4H1831-bN], for which the interaction score was 0.223 in [1]; -0.111 in [2]; -1.73 in [38]; -0.203 in test [3]; 0.142 in test [4]; -0.567 in test [5]. The interaction score was -1.9 in test [6]; -0.157 in test [8]; -0.248 in test [9]; -0.741 in test [10]; 1.7 in test [11]; -1.02 in [12]. For the same molecule, the interaction score in test [13] was -0.269; in [14], -0.39; in test [15] it was -0.282; in test [16] it was -0.624; in test [17], -0.46; in test [18], -0.445. Also, the interaction score was -2.14 in [20], -0.677 in test [21] and -0.466 in [37].
In the case of DEIQQLEQKIQELKQKIQELKWENQELEQ [4H363-bN], the interaction score in test [39] is -0.162; in [40], 0.903; in [41], 0.321; in test [42], -0.702.
In the case of DEIQELEKENEELERKIWELKKENQELER [O15-bH], the interaction score in test [22] is -1.6; in test [23], -1.19; in test [24], -0.549; in test [25], 0.416; in [35], 0.268; in test [26], 1.62. In addition, the interaction score in test [27] is -0.267; in test [28], -0.38; in test [29], 1.73; in test [30], -0.0351.
On to DKNQELKKKIEELKRKNWELKKEIQELER [O13-bH], for which the interaction score in [22] is 0.194; in [23], -0.471; in [24], -2.29; in [25] it was 0.569; in [35] it was 1.51; in test [26], -1.44. Further, the interaction score in [27] is -0.0315; in test [28] it was 0.496; in [29], -0.211; in [30], -0.527.
